molecular target: prostasin (recombinant human, soluble, active two-chain form purified from conditioned medium of CHO cells transfected with full-length prostasin) (human) (UniProt Q16651); experiment: cell-based or functional assay

Substance	IC50 (nM), inhibition of prostasin amidolytic activity towards S2765 [nM]
sHAI-1B wildtype (soluble hepatocyte growth factor activator inhibitor-1B, entire extracellular domain) (from UniProt O43278 36-465)	66
sHAI-1 (obtained from R & D Systems, Inc.) (from UniProt O43278 36-449)	109
Alzheimer's amyloid β protein precursor inhibitor (APPI) (from UniProt P05067 287-344)	> 1000
